This is an account of results in PMC11107202, “Hypothiocyanous acid reductase is critical for host colonization and infection by Streptococcus pneumoniae” (The Journal of Biological Chemistry, 2024).

Series [1] relates to N#CSO. Put plainly: purified protein. The settings on record: 200 μM NADH, 10 nM 6-His-tagged Har, 100 mM sodium phosphate pH 7, 25 °C, HOSCN 1-50 μM.
The target of series [2] is T1, Har (Streptococcus pneumoniae, UniProt A0A0H2ZMK9).
T1 construct: gene SPD_1415; full length, 438 residues; E. coli BL21(DE3), pET28a; N-terminal 6-His tag kept for kinetics, cut by HRV-3C for crystals (4-residue scar); motif CXXXXC (C43, C48), K13, K16, H425, E430
Put plainly: X-ray crystal structure, […] Å. It is filed as binding. The conditions noted are these: tag-cleaved Har; 2.4 M sodium malonate pH 7.0, 20 °C.

Series [3] concerns the target hypothiocyanous acid reductase (Har) (Streptococcus pneumoniae). The experiment in a line: AUC; sedimentation velocity; Har at 2 uM and 20 uM in 20 mM Tris-HCl pH 8.0, 150 mM NaCl; 50,000 rpm, 20 °C; 2DSA and genetic algorithm analysis in UltraScan 4.0.

As a reminder, the Km is the concentration of substrate that gives half-maximal velocity. As usually defined, the kcat is the number of substrate molecules converted per active site and unit of time at saturation. With Har (Streptococcus pneumoniae D39), in series [1], the Km was 3.8 ± 0.3 µM and the kcat stood at 440 ± 10 s⁻¹.
On to `Cc1cc2nc3c(=O)[nH]c(=O)nc-3n(C[C@H](O)[C@H](O)[C@H](O)COP(=O)(O)OP(=O)(O)OC[C@H]3O[C@@H](n4cnc5c(N)ncnc54)[C@H](O)[C@@H]3O)c2cc1C` [FAD], for which, in series [2], the “X-ray crystal structure, 1.50 Å” value is “first crystal structure of full-length Har”.
As a reminder, the stoichiometry N is a count of units in the complex or per binding partner. In series [3], “hypothiocyanous acid reductase (Har) (enzyme)” registered a stoichiometry N of 2.
